# From patent US20090203048A1 (UNIVERSITY OF MASSACHUSETTS, published 2009)
# B1: ^125I-[4-azido-Phe^6]-NT (peptide)
# peptide: ELYENFPRRPYIL
# modifications: 4-azido-Phe at position 6; pGlu at position 1; 125I iodinated
# notes: the residue at 6 is 4-azido-phenylalanine
# Legend:
# [1] = target: bombesin receptor of PC3 cells; assay: 125I-ligand binding to PC3 cells, 37C; with 12 µM Rev-5901
# [2] = target: bombesin receptor of PC3 cells; assay: 125I-ligand binding to PC3 cells, 37C; with 12 µM MK886
# [3] = target: bombesin receptor of PC3 cells; assay: 125I-ligand binding to PC3 cells; with 12 µM NIF
# [4] = target: bombesin receptor of PC3 cells; assay: 125I-ligand binding to PC3 cells, 37C
# [5] = target: bombesin receptor of PC3 cells; assay: 125I-ligand binding to PC3 cells, 37C; with 60 µM AA-861
# [6] = target: bombesin receptor of PC3 cells; assay: 125I-ligand binding to PC3 cells; with 60 µM NIF
# [7] = target: bombesin receptor of PC3 cells; assay: 125I-ligand binding to PC3 cells; with 12 µM verapamil
# [8] = target: bombesin receptor of PC3 cells; assay: 125I-ligand binding to PC3 cells; with 12 µM SKF-96365
# [9] = target: bombesin receptor of PC3 cells; assay: 125I-ligand binding to PC3 cells, 37C; with 12 µM NDGA
# [10] = target: bombesin receptor of PC3 cells; assay: 125I-ligand binding to PC3 cells; with 12 µM phloretin
# [11] = target: bombesin receptor of PC3 cells; assay: 125I-ligand binding to PC3 cells, 37C; with 60 µM NDGA
# [12] = target: bombesin receptor of PC3 cells; assay: 125I-ligand binding to PC3 cells; with 60 µM verapamil
# [13] = target: bombesin receptor of PC3 cells; assay: 125I-ligand binding to PC3 cells; with 60 µM SKF-96365
# [14] = target: bombesin receptor of PC3 cells; assay: Scatchard analysis, PC3 cells, 37C
# [15] = target: bombesin receptor of PC3 cells; assay: 125I-ligand binding to PC3 cells; with 60 µM phloretin
# [16] = target: bombesin receptor of PC3 cells; assay: 125I-ligand binding to PC3 cells, 37C; with 12 µM AA-861
# [17] = target: bombesin receptor of PC3 cells; assay: displacement of 125I-ligand by unlabeled ligand, PC3 cells, 37C
# [18] = target: bombesin receptor of PC3 cells; assay: 125I-ligand binding to PC3 cells, 37C; with 60 µM MK886
# [19] = target: bombesin receptor of PC3 cells; assay: 125I-ligand binding to PC3 cells, 37C; with 60 µM Rev-5901
# [20] = target: vasopressin (V1a) receptor of PC3 cells (UniProt P37288); assay: 125I-ligand binding to PC3 cells, 37C; with 12 µM Rev-5901
# [21] = target: vasopressin (V1a) receptor of PC3 cells (UniProt P37288); assay: 125I-ligand binding to PC3 cells, 37C; with 12 µM MK886
# [22] = target: vasopressin (V1a) receptor of PC3 cells (UniProt P37288); assay: 125I-ligand binding to PC3 cells; with 12 µM NIF
# [23] = target: vasopressin (V1a) receptor of PC3 cells (UniProt P37288); assay: 125I-ligand binding to PC3 cells, 37C
# [24] = target: vasopressin (V1a) receptor of PC3 cells (UniProt P37288); assay: 125I-ligand binding to PC3 cells, 37C; with 60 µM AA-861
# [25] = target: vasopressin (V1a) receptor of PC3 cells (UniProt P37288); assay: 125I-ligand binding to PC3 cells; with 60 µM NIF
# [26] = target: vasopressin (V1a) receptor of PC3 cells (UniProt P37288); assay: 125I-ligand binding to PC3 cells; with 12 µM verapamil
# [27] = target: vasopressin (V1a) receptor of PC3 cells (UniProt P37288); assay: 125I-ligand binding to PC3 cells; with 12 µM SKF-96365
# [28] = target: vasopressin (V1a) receptor of PC3 cells (UniProt P37288); assay: 125I-ligand binding to PC3 cells, 37C; with 12 µM NDGA
# [29] = target: vasopressin (V1a) receptor of PC3 cells (UniProt P37288); assay: 125I-HOLVA binding to PC3 cell membranes; with 60 µM NIF
# [30] = target: vasopressin (V1a) receptor of PC3 cells (UniProt P37288); assay: 125I-ligand binding to PC3 cells; with 12 µM phloretin
# [31] = target: vasopressin (V1a) receptor of PC3 cells (UniProt P37288); assay: 125I-ligand binding to PC3 cells, 37C; with 60 µM NDGA
# [32] = target: vasopressin (V1a) receptor of PC3 cells (UniProt P37288); assay: 125I-ligand binding to PC3 cells; with 60 µM verapamil
# [33] = target: vasopressin (V1a) receptor of PC3 cells (UniProt P37288); assay: 125I-ligand binding to PC3 cells; with 60 µM SKF-96365
# [34] = target: vasopressin (V1a) receptor of PC3 cells (UniProt P37288); assay: Scatchard analysis, PC3 cells, 37C
# [35] = target: vasopressin (V1a) receptor of PC3 cells (UniProt P37288); assay: 125I-ligand binding to PC3 cells; with 60 µM phloretin
# [36] = target: vasopressin (V1a) receptor of PC3 cells (UniProt P37288); assay: 125I-HOLVA binding to PC3 cell membranes; with 60 µM SKF-96365
# [37] = target: vasopressin (V1a) receptor of PC3 cells (UniProt P37288); assay: 125I-ligand binding to PC3 cells, 37C; with 12 µM AA-861
# [38] = target: vasopressin (V1a) receptor of PC3 cells (UniProt P37288); assay: displacement of 125I-ligand by unlabeled ligand, PC3 cells, 37C
# [39] = target: vasopressin (V1a) receptor of PC3 cells (UniProt P37288); assay: 125I-ligand binding to PC3 cells, 37C; with 60 µM MK886
# [40] = target: vasopressin (V1a) receptor of PC3 cells (UniProt P37288); assay: 125I-HOLVA binding to PC3 cell membranes; with 60 µM verapamil
# [41] = target: vasopressin (V1a) receptor of PC3 cells (UniProt P37288); assay: 125I-ligand binding to PC3 cells, 37C; with 60 µM Rev-5901
# [42] = target: T1, neurotensin receptor 1 (NTR1) of PC3 cells (UniProt P30989 1-418, limits assumed); assay: UV crosslinking on PC3 cells, immunoprecipitated NTR1; with 50 µM MK886
# T1 construct: whole, on cells; its antiserum peptide is from human NTR1; Some assays used isolated PC3 cell membranes or detergent or SDS extracts instead of live cells (see the assay field); also called NT receptor
# [43] = target: T1, neurotensin receptor 1 (NTR1) of PC3 …; assay: UV crosslinking on PC3 cells, immunoprecipitated NTR1; with 50 µM NDGA
# [44] = target: T1, neurotensin receptor 1 (NTR1) of PC3 …; assay: UV crosslinking on PC3 cells, immunoprecipitated NTR1; with NIF against control
# [45] = target: T1, neurotensin receptor 1 (NTR1) of PC3 …; assay: UV crosslinking on PC3 cells, immunoprecipitated NTR1; with verapamil against control
# [46] = target: T1, neurotensin receptor 1 (NTR1) of PC3 …; assay: UV crosslinking on PC3 cells, immunoprecipitated NTR1; with phloretin against control
# T1 sequence (P30989 whole entry): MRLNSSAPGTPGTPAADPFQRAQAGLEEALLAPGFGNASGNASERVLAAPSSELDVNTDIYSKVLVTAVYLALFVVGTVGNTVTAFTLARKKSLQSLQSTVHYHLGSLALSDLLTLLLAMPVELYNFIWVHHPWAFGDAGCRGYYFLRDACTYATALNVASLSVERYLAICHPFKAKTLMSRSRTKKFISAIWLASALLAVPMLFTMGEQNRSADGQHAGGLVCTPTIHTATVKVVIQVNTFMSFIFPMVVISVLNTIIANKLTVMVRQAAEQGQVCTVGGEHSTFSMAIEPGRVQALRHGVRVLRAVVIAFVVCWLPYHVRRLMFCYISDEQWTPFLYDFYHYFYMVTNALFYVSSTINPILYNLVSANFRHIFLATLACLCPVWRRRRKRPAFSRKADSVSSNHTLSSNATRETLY
# Chain of bombesin receptor of PC3 cells (P30550 whole entry): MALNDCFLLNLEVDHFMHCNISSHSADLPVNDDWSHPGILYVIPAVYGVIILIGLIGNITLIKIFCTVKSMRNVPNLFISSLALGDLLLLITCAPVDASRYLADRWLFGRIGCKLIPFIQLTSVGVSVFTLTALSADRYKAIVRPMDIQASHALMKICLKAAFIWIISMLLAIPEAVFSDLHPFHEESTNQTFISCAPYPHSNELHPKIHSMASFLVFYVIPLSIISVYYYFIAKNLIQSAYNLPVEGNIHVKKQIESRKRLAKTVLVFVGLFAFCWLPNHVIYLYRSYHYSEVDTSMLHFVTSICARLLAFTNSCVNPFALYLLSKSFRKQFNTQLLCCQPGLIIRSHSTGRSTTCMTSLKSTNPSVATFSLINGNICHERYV
# Chain of vasopressin (V1a) receptor of PC3 cells (P37288 whole entry): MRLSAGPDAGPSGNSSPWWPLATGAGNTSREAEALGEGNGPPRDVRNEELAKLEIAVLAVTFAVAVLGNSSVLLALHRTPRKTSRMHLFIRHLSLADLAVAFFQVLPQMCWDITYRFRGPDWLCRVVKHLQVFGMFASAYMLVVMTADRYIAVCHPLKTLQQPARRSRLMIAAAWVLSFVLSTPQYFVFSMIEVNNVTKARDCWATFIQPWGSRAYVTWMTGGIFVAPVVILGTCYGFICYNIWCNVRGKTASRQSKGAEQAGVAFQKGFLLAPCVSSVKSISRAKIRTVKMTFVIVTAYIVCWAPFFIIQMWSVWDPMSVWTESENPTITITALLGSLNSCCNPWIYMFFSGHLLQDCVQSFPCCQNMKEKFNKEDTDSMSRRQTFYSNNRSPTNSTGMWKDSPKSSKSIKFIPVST
molecule,measurement,setting,value
"(Tyr 4, Nle 14)-bombesin (peptide)",Specific Binding (% control),[1],107 % control
same,Specific Binding (% control),[2],106 % control
same,Specific Binding (% control),[3],108 % control
same,Specific Binding (% of total),[4],95 % of total
same,Specific Binding (% control),[5],135 % control
same,Specific Binding (% control),[6],119 % control
same,Specific Binding (% control),[7],104 % control
same,Specific Binding (% control),[8],99 % control
same,Specific Binding (% control),[9],110 % control
same,Specific Binding (% control),[10],104 % control
same,Specific Binding (% control),[11],127 % control
same,Specific Binding (% control),[12],104 % control
same,Specific Binding (% control),[13],106 % control
same,Bmax,[14],1020 fmol/mg
same,Specific Binding (% control),[15],111 % control
same,Specific Binding (% control),[16],112 % control
same,Ki,[17],0.6 nM
same,Specific Binding (% control),[18],125 % control
same,Specific Binding (% control),[19],119 % control
"des-Gly-[Phaal, D-Tyr(Et)2, Lys6, Arg8]-vasopressin (HOLVA) (peptide)",Specific Binding (% control),[20],68 % control
same,Specific Binding (% control),[21],93 % control
same,Specific Binding (% control),[22],95 % control
same,Specific Binding (% of total),[23],77 % of total
same,Specific Binding (% control),[24],57 % control
same,Specific Binding (% control),[25],59 % control
same,Specific Binding (% control),[26],85 % control
same,Specific Binding (% control),[27],80 % control
same,Specific Binding (% control),[28],84 % control
same,Binding (% control),[29],90 % control
same,Specific Binding (% control),[30],92 % control
same,Specific Binding (% control),[31],50 % control
same,Specific Binding (% control),[32],58 % control
same,Specific Binding (% control),[33],50 % control
same,Bmax,[34],156 fmol/mg
same,Specific Binding (% control),[35],73 % control
same,Binding (% control),[36],110 % control
same,Specific Binding (% control),[37],87 % control
same,Ki,[38],0.5 nM
same,Specific Binding (% control),[39],67 % control
same,Binding (% control),[40],91 % control
same,Specific Binding (% control),[41],42 % control
B1,fold increase in radioactivity associated with NTR1,[42],2.7 fold
same,fold increase in radioactivity associated with NTR1,[43],2.6 fold
same,fold increase in radioactivity associated with NTR1,[44],2.8 fold
same,fold increase in radioactivity associated with NTR1,[45],1.5 fold
same,fold increase in radioactivity associated with NTR1,[46],1.8 fold
